Measurements reported in PMC6449940, “The Cdc42 effectors Gic1 and Gic2 regulate polarized post-Golgi secretion” (Cell & Bioscience, 2019).

Tests used:
[1] = target: T1, His6-Cdc42 (S. cerevisiae, UniProt P19073 1-191); assay: pull-down; GST-Gic2N (a.a.1–155) on glutathione Sepharose (20 μg), His6-Cdc42 or mutant (10 μg) in the presence of GTPγS; bound protein detected with anti-Hisx6 antibody; conditions: both partners purified
T1 construct: Cdc42, small GTPase, S. cerevisiae; also called Hisx6-Cdc42; Cdc42 wild type; source: bacteria, purified (Hisx6 fusion)
T1 sequence (P19073 whole entry, the tested form may be a part): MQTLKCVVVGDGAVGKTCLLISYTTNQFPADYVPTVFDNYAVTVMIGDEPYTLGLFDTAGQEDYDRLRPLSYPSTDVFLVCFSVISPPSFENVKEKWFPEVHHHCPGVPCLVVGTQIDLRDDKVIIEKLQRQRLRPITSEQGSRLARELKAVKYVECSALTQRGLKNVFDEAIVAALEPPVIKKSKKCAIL

[2] = target: T2, His6-cdc42-302 (V36A F37A) (S. cerevisiae, UniProt P19073 1-191, V36A | F37A); assay: as above; conditions: both partners purified
T2 construct: Cdc42, S. cerevisiae, with V36A and F37A; source: bacteria, purified (Hisx6 fusion)
T2 sequence (P19073 whole entry V36A/F37A, the tested form may be a part): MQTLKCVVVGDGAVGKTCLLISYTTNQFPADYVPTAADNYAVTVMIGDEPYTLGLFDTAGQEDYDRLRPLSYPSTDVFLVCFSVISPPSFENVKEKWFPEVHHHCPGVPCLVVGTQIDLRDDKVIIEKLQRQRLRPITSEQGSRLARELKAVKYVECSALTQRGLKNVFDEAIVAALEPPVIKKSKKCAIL

B1: GST-tagged Gic2N (amino acids 1–155) (domain or fragment, S. cerevisiae (budding yeast), UniProt Q06648 1-155, looked up)
chain: MTSASITNTGNETMNLPQMRSIWLDEDEEAEKLYGLQAQQFMGSDDEENLGITFINSDKPVLSNKKNIELPPLSPNSHPSCHHRRSNSNSAKSKESSSSSSSANKTNHKKVFLKLNLLKKKLLGAQPDIRGKGISTPFDFQHISHADTRNGFQDE
notes: also called GST-Gic2N; GST-Gic2; source: GST fusion protein, purified and conjugated to glutathione Sepharose
Question: Does B1 bind [1]?
Answer: Result: binds

Question: Does B1 bind [2]?
Answer: Result: binds
